{
  "source": "paper PMC9579167",
  "about": "“Structure of the proteolytic enzyme PAPP-A with the endogenous inhibitor stanniocalcin-2 reveals its inhibitory mechanism” (Nature Communications, 2022)",
  "binders": {"B1": {"name": "active site-inactivated human PAPP-A (E563Q) (enzyme, UniProt Q13219 82-1627, looked up)", "chain": "EARGATEEPSPPSRALYFSGRGEQLRLRADLELPRDAFTLQVWLRAEGGQRSPAVITGLYDKCSYISRDRGWVVGIHTISDQDNKDPRYFFSLKTDRARQVTTINAHRSYLPGQWVYLAATYDGQFMKLYVNGAQVATSGEQVGGIFSPLTQKCKVLMLGGSALNHNYRGYIEHFSLWKVARTQREILSDMETHGAHTALPQLLLQENWDNVKHAWSPMKDGSSPKVEFSNAHGFLLDTSLEPPLCGQTLCDNTEVIASYNQLSSFRQPKVVRYRVVNLYEDDHKNPTVTREQVDFQHHQLAEAFKQYNISWELDVLEVSNSSLRRRLILANCDISKIGDENCDPECNHTLTGHDGGDCRHLRHPAFVKKQHNGVCDMDCNYERFNFDGGECCDPEITNVTQTCFDPDSPHRAYLDVNELKNILKLDGSTHLNIFFAKSSEEELAGVATWPWDKEALMHLGGIVLNPSFYGMPGHTHTMIHQIGHSLGLYHVFRGISEIQSCSDPCMETEPSFETGDLCNDTNPAPKHKSCGDPGPGNDTCGFHSFFNTPYNNFMSYADDDCTDSFTPNQVARMHCYLDLVYQGWQPSRKPAPVALAPQVLGHTTDSVTLEWFPPIDGHFFERELGSACHLCLEGRILVQYASNASSPMPCSPSGHWSPREAEGHPDVEQPCKSSVRTWSPNSAVNPHTVPPACPEPQGCYLELEFLYPLVPESLTIWVTFVSTDWDSSGAVNDIKLLAVSGKNISLGPQNVFCDVPLTIRLWDVGEEVYGIQIYTLDEHLEIDAAMLTSTADTPLCLQCKPLKYKVVRDPPLQMDVASILHLNRKFVDMDLNLGSVYQYWVITISGTEESEPSPAVTYIHGSGYCGDGIIQKDQGEQCDDMNKINGDGCSLFCRQEVSFNCIDEPSRCYFHDGDGVCEEFEQKTSIKDCGVYTPQGFLDQWASNASVSHQDQQCPGWVIIGQPAASQVCRTKVIDLSEGISQHAWYPCTISYPYSQLAQTTFWLRAYFSQPMVAAAVIVHLVTDGTYYGDQKQETISVQLLDTKDQSHDLGLHVLSCRNNPLIIPVVHDLSQPFYHSQAVRVSFSSPLVAISGVALRSFDNFDPVTLSSCQRGETYSPAEQSCVHFACEKTDCPELAVENASLNCSSSDRYHGAQCTVSCRTGYVLQIRRDDELIKSQTGPSVTVTCTEGKWNKQVACEPVDCSIPDHHQVYAASFSCPEGTTFGSQCSFQCRHPAQLKGNNSLLTCMEDGLWSFPEALCELMCLAPPPVPNADLQTARCRENKHKVGSFCKYKCKPGYHVPGSSRKSKKRAFKTQCTQDGSWQEGACVPVTCDPPPPKFHGLYQCTNGFQFNSECRIKCEDSDASQGLGSNVIHCRKDGTWNGSFHVCQEMQGQCSVPNELNSNLKLQCPDGYAIGSECATSCLDHNSESIILPMNVTVRDIPHWLNPTRVERVVCTAGLKWYPHPALIHCVKGCEPFMGDNYCDAINNRAFCNYDGGDCCTSTVKTKKVTPFPMSCDLQGDCACRDPQAQEHSRKDLRGYSHG", "modifications": "N-glycans at N390, N402, N429, N480, N601, N725, N825, N1323", "notes": "numbers count on UniProt Q13219; also called pregnancy-associated plasma protein-A; pappalysin-1"}, "B2": {"name": "human IGFBP-4 (natural protein, UniProt P22692 22-258, looked up)", "chain": "DEAIHCPPCSEEKLARCRPPVGCEELVREPGCGCCATCALGLGMPCGVYTPRCGSGLRCYPPRGVEKPLHTLMHGQGVCMELAEIEAIQESLQPSDKDEGDHPNNSFSPCSAHDRRCLQKHFAKIRDRSTSGGKMKVNGAPREDARPVPQGSCQSELHRALERLAASQSRTHEDLYIIPIPNCDRNGNFHPKQCHPALDGQRGKCWCVDRKTGVKLPGGLEPKGELDCHQLADSFRE", "notes": "also called pBP4mH; source: 293T cells, transient transfection"}},
  "key": {"[1]": {"molecular_target": "the molecule itself", "test": "cryo-EM structure; single-particle cryo-EM of the purified 2:2 PAPP-A(E563Q)·STC2 complex from co-cultured 293T lines; 0.6 mg/mL; 20 mM HEPES, 100 mM NaCl, 1 mM CaCl2, pH 7.4"}, "[2]": {"molecular_target": "T1, 415-residue monomeric C-terminal PAPP-A fragment, PA(T1213-G1627) (human, UniProt Q13219 1213-1627)", "T1 construct": "PAPP-A, human, residues T1213-G1627 (SCR1-5 and the C domain with LNR3); also called PAPP-A(T1213-G1627); C-terminal fragment of PAPP-A truncated at SCR1; source: 293T cells, transient transfection", "T1 sequence (looked up)": "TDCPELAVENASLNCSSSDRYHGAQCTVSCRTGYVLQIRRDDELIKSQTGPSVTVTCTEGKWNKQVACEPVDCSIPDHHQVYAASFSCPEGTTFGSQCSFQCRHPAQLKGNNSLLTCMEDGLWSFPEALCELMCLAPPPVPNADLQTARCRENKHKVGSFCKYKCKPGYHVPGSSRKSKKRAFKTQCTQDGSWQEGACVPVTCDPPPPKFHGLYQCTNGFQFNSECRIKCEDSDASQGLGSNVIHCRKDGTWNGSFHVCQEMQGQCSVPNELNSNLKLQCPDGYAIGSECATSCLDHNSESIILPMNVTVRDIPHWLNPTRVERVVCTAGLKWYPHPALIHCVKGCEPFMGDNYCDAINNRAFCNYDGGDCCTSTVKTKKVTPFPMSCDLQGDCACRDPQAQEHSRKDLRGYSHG", "test": "SPR; Biacore 3000, 25 °C; PA_T1213-G1627 amine-coupled to CM5 (7000 RU); IGFBP-4 injected 5 min at 10 µl/min; 10 mM HEPES pH 7.5, 150 mM NaCl, 2 mM CaCl2, 0.05% Tween-20; also with 10 mM EDTA", "settings": "both partners purified"}},
  "data": [
    {"binder": "B1", "values": [
      {"measurement": "binding result", "setting": "[1]", "result": "binds"}
    ]},
    {"binder": "B2", "values": [
      {"measurement": "binding result", "setting": "[2]", "result": "binds"}
    ]}
  ]
}
